Test results published in publication PMC13344369.
Where two headings read alike, the source gives them in different places.

How the values were obtained:
IFN-γ (interferon gamma) [1] = target: T1, IFN-γ (interferon gamma) (UniProt P01579 24-161); assay: graphene-Nafion FET biosensor
IFN-γ (interferon gamma) [2] = target: T1, IFN-γ (interferon gamma); assay: graphene-Nafion FET biosensor; remark: listed apart in the source

T1 sequence (P01579 24-161): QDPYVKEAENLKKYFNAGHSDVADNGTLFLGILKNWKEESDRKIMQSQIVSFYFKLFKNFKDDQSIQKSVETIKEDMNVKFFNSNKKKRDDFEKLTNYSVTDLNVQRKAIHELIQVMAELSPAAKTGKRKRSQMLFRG

B1: IFN-γ-specific aptamer (ssDNA)
DNA: GGGGTTGTTTGTGTTGGGTGTTGTGT
modifications: 5'-NH2
**Q.** For B1, which Kd (IFN-γ (interferon gamma) [1]) is on record?
**A.** 4.39 nM

**Q.** And the Kd (IFN-γ (interferon gamma) [2])?
**A.** 4.21 nM
